Data on one molecule can be found in US20140371152A1 (DOSHISHA, published 2014).

This assay deals with T1, Amyloid β 1-9 polypeptide corresponding to the N-terminal region of βCTF.
T1 construct: Screening target and KD partner
Nature of the assay: dissociation constant against the Amyloid β 1-9 peptide; method not stated.

B1: #4 polypeptide (peptide)
peptide: Ac-MHLVICDCYCTTDICYCYSCTPN-NH2
modifications: cysteine pairing not given here
notes: Synthetic peptide found by screening against Amyloid β 1-9; used dissolved in DMSO; also called peptide name #4
For B1, the Kd (as a rule, a measure of binding affinity in units of concentration) came out at 2.62 µM.
